Reference: US20220031842A1 (JIANGSU HENGRUI MEDICINE, published 2022)
Where two headings read alike, the source gives them in different places.

B1: mAb229 (antibody, V domains shown)
VH: QIQLVQSGPELKKPGETVKISCKASGYTFTTSGMSWVKQAPGKGLKWMGWINTYSGVPTYADDFKGRFAFSLETSASTAYLQINNLKNEDTATYFCARDNYDARDVYYYAMDYWGQGTSVTVSS
VL: DIQMTQSPASLSVSVGETVTITCRASENIYSNLAWYQQKQGKSPQLLVYAATNLADGVPSRFSGSGSGTQYSLKINSLQSEDFGSYYCQHFWITPWTFGGGTKLEIK
notes: Murine hybridoma antibody; also called LAG-3 antibody mAb229; hybridoma clone mAb229
B2: mAb303 (antibody, V domains shown)
VH: EVQLQQSGPVLVKPGASVKMSCKASGYTLTDYYMNWVKQSHGKSLEWIGVINPYNGDTAYNQKFKGKATLTVDKSSNTAYMEINSLTSEDSAVYYCTRDDGYYDYYFDVWGTGTTVTVSS
VL: DIQMTQSPSSLSASLGERVILTCRASQDIGSRLNWLQQGPDGTFKRLIYATSTLDSGVPKRFSGSRSGSDFSLTISSLESEDFVDYYCLQLASSPPTFGGGTKLEIK
notes: Murine hybridoma antibody; also called LAG-3 antibody mAb303; hybridoma clone mAb303

What was measured:
[1] = biological target: T1, Fusion protein of LAG-3 extracellular region and hIgG1 Fc (human); assay: ELISA, LAG-3-Fc captured by anti-human Fc on plate (which fusion: inferred)
T1 construct: Limits of the signal peptide are marked only by lost underlining; also called LAG-3-Fc; LAG-3-Fc fusion protein
Text: (§1) The binding ability of anti-LAG-3 antibody to human LAG-3 protein was detected by ELISA assay. LAG-3 fusion protein with Fc or mFc tag was immobilized into 96-well microtiter plate by binding to anti-Fc or anti-mFc antibody coated on the microtiter plate, the strength of the signal after the addition of the antibody was used to determine the binding activity of the antibody to LAG-3, the specific experimental method is as follows.
(§2) The goat anti-human Fc antibody (Jackson Immuno Research, Cat No. 109-005-008) or goat anti-mouse Fc antibody (Sigma, Cat No. M3534-1ML) was diluted to a concentration of 2 μg/ml with PBS buffer at pH 7.4 (Sigma, Cat No. P4417-100TAB), and added to a 96-well plate at a volume of 50 μl/well and then, the plate was incubated in the incubator at 37° C. for 2 hours. After discarding the liquid, the plates were blocked with 200 μl/well of blocking solution containing 5% skim milk (Bright Dairy, skim milk powder) in PBS, and incubated in the incubator at 37° C. for 2.5 hours or overnight at 4° C. (16-18 hours). After blocking, the blocking solution was discarded and the plate was washed 5 times with PBST buffer (PH7.4 PBS containing 0.05% tween-20). […]

[2] = biological target: T1, Fusion protein of LAG-3 extracellular …; assay: as above; remark: listed apart in the source
Text: as §1, §2

[3] = biological target: T2, LAG-3 extracellular domain with a Flag tag (human, UniProt P18627 23-434); assay: SPR (Biacore), antibody captured on anti-mouse capture chip, LAG-3-Flag in flow
T2 construct: also called LAG-3-Flag; LAG-3-Flag antigen
T2 sequence: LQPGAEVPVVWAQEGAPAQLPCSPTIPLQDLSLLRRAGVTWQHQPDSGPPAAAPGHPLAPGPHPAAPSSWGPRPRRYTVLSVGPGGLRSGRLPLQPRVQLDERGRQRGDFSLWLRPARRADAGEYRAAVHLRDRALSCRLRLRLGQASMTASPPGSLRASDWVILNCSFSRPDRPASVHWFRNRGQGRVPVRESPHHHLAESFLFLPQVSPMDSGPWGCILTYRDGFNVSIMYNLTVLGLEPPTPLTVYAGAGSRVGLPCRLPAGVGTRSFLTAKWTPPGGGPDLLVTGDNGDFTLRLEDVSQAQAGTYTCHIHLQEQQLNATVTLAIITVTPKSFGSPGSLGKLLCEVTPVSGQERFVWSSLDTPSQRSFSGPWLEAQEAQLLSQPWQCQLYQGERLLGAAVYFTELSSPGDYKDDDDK
Text: (§3) 1. […] Then, the LAG-3-Flag antigen (produced in-house, SEQ ID NO:1) was flowed through the surface of the biochip, and the reaction signal was detected in real time by using a Biacore instrument to obtain the binding and dissociation curves, the value of affinity was obtained by fitting, see above table 2. After each cycle of dissociation was finished in the experiment, the biochip was washed and regenerated with a regeneration solution provided in the mouse anti-capture kit.

[4] = biological target: T2, LAG-3 extracellular domain with a Flag …; assay: SPR (Biacore), antibody captured on anti-human capture chip, LAG-3-Flag in flow
Text: as §3, with “2.” for “1.”, “detected” for “detected in”, “time” for “time by”, “see” for “see above”, “10 below.” for “2.”, “human” for “mouse”

Binder | EC50 [1] | EC50 [2] | Kd [3] | Kd [4]
B1 | 129 pM | 129 pM | 426 pM | 17.2 pM
B2 | 172 pM | 172 pM | 470 pM | 74.9 pM
